B1: Pistol ribozyme (parent)
chain: GGGUCGUUGUUCCAUAAUCGCGUGGAUAUGGCACGCAAGUUUCUACCGGGCACCGUAAAUGUCCGACUGGAGCCGUUCGGGCGGCUAUAAACAGACCUCAGGCCCGAAGCGUGGCGGCACCUGCCGCCGGUGGUAAAAAAGAUCGGAAGAGCACACGUCU

Variants of: B1
Assay: aptazyme ON/OFF ratio, guanine; higher = stronger switching; co-transcriptional cleavage with and without guanine

Variant	aptazyme ON/OFF ratio
U7C U8C G9A U10G U11A C12A	1.37
U7C U8C G9A U10G U11A C12U	1.11
U7C U8C G9A U10G U11A C12G	1.17
U7C U8C G9A U10G C13U	1.37
U7C U8C G9A U10G C13G	1.12
U7C U8C G9A U10G C13A	1.27
U7C U8C G9A U11G C12A	1.37
U7C U8C G9A U11G C12U	1.34
U7C U8C G9A U11G C12G	1.35
U7C U8C G9A U11A C12U C13A	1.26
U7C U8C G9A U11A C12U C13G	1.25
U7C U8C G9A U11A C12U C13U	1.21
U7C U8C G9C U10A U11C C13U	1.1
U7C U8C G9C U10A U11C C13G	1.1
U7C U8C G9C U10A U11C C13A	1.08
U7C U8C G9A U10G U11A C13A	1.1
U7C U8C G9A U10G U11A C13G	1.25
U7C U8C G9A U10G U11A C13U	1.07
U7C U8C G9C U10C U11G C12G C13U	1.11
U7C U8C G9C U10C U11G C12G C13A	1.08
U7C U8C G9C U10C U11G C12G C13G	1.12
U7C U8C G9A U10G C12U	1.46
U7C U8C G9A U10G C12A	1.21
U7C U8C G9A U10G C12G	1.22

Variant	aptazyme ON/OFF ratio
U7C U8C G9C C12G	1.18
U7C U8C G9C C12A	1.26
U7C U8C G9C C12U	1.17
U7C U8C G9C U10C U11A C12G C13G	1.13
U7C U8C G9C U10C U11A C12G C13U	1.05
U7C U8C G9C U10C U11A C12G C13A	1.11
U7C U8C G9A U10C C12A	1.12
U7C U8C G9A U10C C12G	1.33
U7C U8C G9A U10C C12U	2.28
U7C U8C G9A U10G U11C	1.22
U7C U8C G9A U10G U11A	1.16
U7C U8C G9A U10G U11G	1.59
U7C U8C G9A U10C U11G	1.24
U7C U8C G9A U10C U11C	3.61
U7C U8C G9A U10C U11A	1.8
U7C U8C G9A U10G U11C C12A C13A	1.2
U7C U8C G9A U10G U11C C12A C13G	1.07
U7C U8C G9A U10G U11C C12A C13U	1.17
U7C U8C G9A U10G U11G C12A	1.23
U7C U8C G9A U10G U11G C12U	1.25
U7C U8C G9A U10G U11G C12G	1.16
U7C U8C G9C U10A C13G	1.15
U7C U8C G9C U10A C13U	1.35
U7C U8C G9C U10A C13A	1.16

Variant	aptazyme ON/OFF ratio
U7C U8C G9A U10G C12G C13A	1.2
U7C U8C G9A U10G C12G C13U	1.16
U7C U8C G9A U10G C12G C13G	1.16
U7C U8C G9A U10C C12G C13G	1.21
U7C U8C G9A U10C C12G C13A	1.28
U7C U8C G9A U10C C12G C13U	1.11
U7C U8C G9A U11A	1.16
U7C U8C G9A U11C	1.82
U7C U8C G9A U11G	1.62
U7C U8C G9C U10A U11C C12G C13G	1.15
U7C U8C G9C U10A U11C C12G C13U	1.2
U7C U8C G9C U10A U11C C12G C13A	1.21
U7C U8C G9C U10G C12A C13U	1.1
U7C U8C G9C U10G C12A C13G	1.06
U7C U8C G9C U10G C12A C13A	1.1
U7C U8C G9C U10C U11G C12U	1.15
U7C U8C G9C U10C U11G C12A	1.18
U7C U8C G9C U10C U11G C12G	1.13
U7C U8C G9C U10C U11A C12A C13G	1.06
U7C U8C G9C U10C U11A C12A C13A	1.07
U7C U8C G9C U10C U11A C12A C13U	1.1
U7C U8C G9C U10A U11A C13U	1.15
U7C U8C G9C U10A U11A C13G	1.14
U7C U8C G9C U10A U11A C13A	1.13

Variant	aptazyme ON/OFF ratio
U7C U8C G9A U10C U11G C12G C13G	1.41
U7C U8C G9A U10C U11G C12G C13A	1.23
U7C U8C G9A U10C U11G C12G C13U	1.17
U7C U8C G9A U10G U11G C13A	1.18
U7C U8C G9A U10G U11G C13U	1.29
U7C U8C G9A U10G U11G C13G	1.23
U7C U8C G9A U10C U11A C13U	1.45
U7C U8C G9A U10C U11A C13G	1.04
U7C U8C G9A U10C U11A C13A	1.41
U7C U8C G9C U10G C12G C13U	1.1
U7C U8C G9C U10G C12G C13G	1.09
U7C U8C G9C U10G C12G C13A	1.05
U7C U8C G9A U10G U11C C13U	1.17
U7C U8C G9A U10G U11C C13A	1.24
U7C U8C G9A U10G U11C C13G	1.01
U7C U8C G9A U11A C13U	1.32
U7C U8C G9A U11A C13A	1.26
U7C U8C G9A U11A C13G	1.13
U7C U8C G9A U10G U11G C12U C13U	1.14
U7C U8C G9A U10G U11G C12U C13A	1.1
U7C U8C G9A U10G U11G C12U C13G	1.11
U7C U8C G9C U10A U11A C12U C13G	1.2
U7C U8C G9C U10A U11A C12U C13U	1.17
U7C U8C G9C U10A U11A C12U C13A	1.03

Variant	aptazyme ON/OFF ratio
U7C U8C G9C U10A U11A C12A C13G	1.03
U7C U8C G9C U10A U11A C12A C13A	1.09
U7C U8C G9C U10A U11A C12A C13U	1.13
U7C U8C G9A U10A U11G C13G	1.19
U7C U8C G9A U10A U11G C13U	1.21
U7C U8C G9A U10A U11G C13A	1.21
U7C U8C G9A U10G U11G C12A C13A	1.2
U7C U8C G9A U10G U11G C12A C13U	1.15
U7C U8C G9A U10G U11G C12A C13G	1.1
U7C U8C G9C C12A C13U	1.13
U7C U8C G9C C12A C13G	1.06
U7C U8C G9C C12A C13A	1.08
U7C U8C G9A U10C U11C C12G C13G	1.24
U7C U8C G9A U10C U11C C12G C13A	1.5
U7C U8C G9A U10C U11C C12G C13U	1.29
U7C U8C G9A U10G U11C C12U C13G	1.18
U7C U8C G9A U10G U11C C12U C13U	1.26
U7C U8C G9A U10G U11C C12U C13A	1.29
U7C U8C G9C C12G C13U	1.07
U7C U8C G9C C12G C13A	1.08
U7C U8C G9C C12G C13G	1.07
U7C U8C G9A U10C U11A C12U C13A	1.21
U7C U8C G9A U10C U11A C12U C13U	1.3
U7C U8C G9A U10C U11A C12U C13G	1.27

Variant	aptazyme ON/OFF ratio
U7C U8C G9C U10G C12U C13A	1.08
U7C U8C G9C U10A U11G	1.32
U7C U8C G9C U10A U11A	1.44
U7C U8C G9C U10A U11C	1.39
U7C U8C G9A U11G C12G C13G	1.11
U7C U8C G9A U11G C12G C13U	1.11
U7C U8C G9A U11G C12G C13A	1.23
U7C U8C G9C U10A U11G C12G	1.14
U7C U8C G9C U10A U11G C12U	1.05
U7C U8C G9C U10A U11G C12A	1.16
U7C U8C G9A U11C C12G C13U	1.23
U7C U8C G9A U11C C12G C13G	1.29
U7C U8C G9A U11C C12G C13A	1.34
U7C U8C G9A U10C U11C C12A C13G	1.17
U7C U8C G9A U10C U11C C12A C13U	1.31
U7C U8C G9A U10C U11C C12A C13A	1.39
U7C U8C G9C U10C U11C C12G	1.13
U7C U8C G9C U10C U11C C12U	1.06
U7C U8C G9C U10C U11C C12A	1.04
U7C U8C G9C U10A U11A C12A	1.21
U7C U8C G9C U10A U11A C12U	1.09
U7C U8C G9C U10A U11A C12G	1.08
U7C U8C G9A U11A C12G C13G	1.17
U7C U8C G9A U11A C12G C13U	1.23

Variant	aptazyme ON/OFF ratio
U7C U8C G9A U11A C12G C13A	1.1
U7C U8C G9C U10C U11G C13U	1.21
U7C U8C G9C U10C U11G C13A	1.33
U7C U8C G9C U10C U11G C13G	1.19
U7C U8C G9C C13G	1.09
U7C U8C G9C C13U	1.05
U7C U8C G9C C13A	1.09
U7C U8C G9A U11C C12A C13A	1.29
U7C U8C G9A U11C C12A C13G	1.19
U7C U8C G9A U11C C12A C13U	1.38
U7C U8C G9A U10G U11G C12G C13A	1.15
U7C U8C G9A U10G U11G C12G C13U	1.11
U7C U8C G9A U10G U11G C12G C13G	1.14
U7C U8C G9A U10C U11G C12A	1.26
U7C U8C G9A U10C U11G C12G	1.36
U7C U8C G9A U10C U11G C12U	1.21
U7C U8C G9C U10C C13U	2.85
U7C U8C G9C U10C C13G	1.12
U7C U8C G9C U10C C13A	1.04
U7C U8C G9C	1.13
U7C U8C G9A U11A C12U	1.06
U7C U8C G9A U11A C12A	1.21
U7C U8C G9A U11A C12G	1.21
